Values quoted from earlier work, collected in article PMC4732575.

Key:
LDLR (Homo sapiens) = LDLR (Homo sapiens) (UniProt P01130)
CD36 (Homo sapiens) = CD36 (Homo sapiens) (UniProt P16671)
CD36 (Homo sapiens), sequence (P16671 2-472): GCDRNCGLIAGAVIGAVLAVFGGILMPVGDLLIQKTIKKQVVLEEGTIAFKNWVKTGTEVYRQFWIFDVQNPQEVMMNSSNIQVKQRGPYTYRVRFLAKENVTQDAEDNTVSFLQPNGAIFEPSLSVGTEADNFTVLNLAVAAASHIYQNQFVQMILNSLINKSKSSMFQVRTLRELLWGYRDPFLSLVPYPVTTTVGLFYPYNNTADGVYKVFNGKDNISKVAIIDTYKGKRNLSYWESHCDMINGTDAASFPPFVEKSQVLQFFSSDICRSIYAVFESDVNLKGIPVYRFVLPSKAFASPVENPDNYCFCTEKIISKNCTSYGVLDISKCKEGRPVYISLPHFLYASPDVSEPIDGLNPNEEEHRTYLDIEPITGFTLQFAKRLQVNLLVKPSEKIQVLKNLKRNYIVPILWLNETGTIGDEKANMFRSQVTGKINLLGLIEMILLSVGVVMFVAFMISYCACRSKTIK

PCSK9, sequence (Q8NBP7 153-692): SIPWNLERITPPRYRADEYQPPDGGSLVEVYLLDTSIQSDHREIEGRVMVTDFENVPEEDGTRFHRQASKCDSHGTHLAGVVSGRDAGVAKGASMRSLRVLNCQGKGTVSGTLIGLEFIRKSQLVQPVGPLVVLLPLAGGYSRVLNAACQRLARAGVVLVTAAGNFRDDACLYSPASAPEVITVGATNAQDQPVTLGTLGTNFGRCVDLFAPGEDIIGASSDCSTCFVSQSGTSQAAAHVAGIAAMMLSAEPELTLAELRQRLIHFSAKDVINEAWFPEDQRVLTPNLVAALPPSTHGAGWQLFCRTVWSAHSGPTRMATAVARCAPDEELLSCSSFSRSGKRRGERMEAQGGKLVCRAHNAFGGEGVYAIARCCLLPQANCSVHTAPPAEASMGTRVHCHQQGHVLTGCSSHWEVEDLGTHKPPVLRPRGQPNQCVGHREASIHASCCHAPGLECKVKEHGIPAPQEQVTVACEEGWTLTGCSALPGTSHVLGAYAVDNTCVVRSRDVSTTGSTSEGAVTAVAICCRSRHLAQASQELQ
LDLR (Homo sapiens), sequence (P01130 22-788): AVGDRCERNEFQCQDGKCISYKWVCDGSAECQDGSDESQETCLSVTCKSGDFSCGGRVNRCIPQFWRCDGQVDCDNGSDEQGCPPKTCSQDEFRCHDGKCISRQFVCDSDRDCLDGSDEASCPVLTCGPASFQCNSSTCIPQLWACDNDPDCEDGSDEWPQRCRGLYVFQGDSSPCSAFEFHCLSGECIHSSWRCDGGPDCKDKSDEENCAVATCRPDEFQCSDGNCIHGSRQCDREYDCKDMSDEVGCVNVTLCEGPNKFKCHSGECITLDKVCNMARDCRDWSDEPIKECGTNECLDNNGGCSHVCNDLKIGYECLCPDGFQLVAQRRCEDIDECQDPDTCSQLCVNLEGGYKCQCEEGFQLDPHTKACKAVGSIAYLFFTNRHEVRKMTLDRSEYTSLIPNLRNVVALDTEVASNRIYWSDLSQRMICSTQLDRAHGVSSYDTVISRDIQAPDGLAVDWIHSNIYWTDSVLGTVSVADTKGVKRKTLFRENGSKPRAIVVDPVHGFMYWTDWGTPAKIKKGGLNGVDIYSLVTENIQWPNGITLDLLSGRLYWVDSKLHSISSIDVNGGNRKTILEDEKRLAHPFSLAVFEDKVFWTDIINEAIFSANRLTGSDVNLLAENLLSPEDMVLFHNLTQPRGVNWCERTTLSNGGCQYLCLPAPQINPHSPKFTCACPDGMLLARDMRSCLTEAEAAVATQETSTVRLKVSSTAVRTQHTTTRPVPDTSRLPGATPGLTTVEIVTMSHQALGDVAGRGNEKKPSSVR

Kd (LDLR (Homo sapiens)): 1 µM
Kd (CD36 (Homo sapiens)): 1 µM
Substance: PCSK9 (from UniProt Q8NBP7)
